This note sets out measurements from article PMC4538832, “Structures of the T. brucei kRNA editing factor MRB1590 reveal unique RNA-binding pore motif contained within an ABC-ATPase fold”.

Data set [1] addresses T1, MRB1590(10-668) (Trypanosoma brucei, UniProt UPI00067E648B 10-668).
T1 sequence: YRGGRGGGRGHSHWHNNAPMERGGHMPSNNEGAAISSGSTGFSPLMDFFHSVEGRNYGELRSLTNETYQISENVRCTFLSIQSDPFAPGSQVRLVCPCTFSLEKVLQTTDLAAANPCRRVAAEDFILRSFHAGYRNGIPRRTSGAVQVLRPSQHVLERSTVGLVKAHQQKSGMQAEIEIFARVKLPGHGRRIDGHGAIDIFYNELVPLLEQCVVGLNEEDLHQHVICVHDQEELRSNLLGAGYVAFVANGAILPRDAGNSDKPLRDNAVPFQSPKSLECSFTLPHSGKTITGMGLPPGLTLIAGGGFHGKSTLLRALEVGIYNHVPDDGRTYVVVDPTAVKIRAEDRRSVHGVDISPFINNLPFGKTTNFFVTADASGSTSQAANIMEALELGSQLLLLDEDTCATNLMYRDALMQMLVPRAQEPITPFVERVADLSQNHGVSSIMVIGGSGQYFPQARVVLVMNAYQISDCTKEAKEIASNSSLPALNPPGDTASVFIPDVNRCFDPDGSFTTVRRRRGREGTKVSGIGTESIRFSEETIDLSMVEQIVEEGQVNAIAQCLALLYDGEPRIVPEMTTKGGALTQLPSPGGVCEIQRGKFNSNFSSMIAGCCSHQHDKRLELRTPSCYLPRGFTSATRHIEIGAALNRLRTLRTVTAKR
Briefly: fluorescence polarization; ADP, Mg2+; FP: 20 mM Tris-HCl pH 7.5, 150 mM NaCl, 5% glycerol, 1 mM MgCl2, 2 mM ADP or AMP-PNP, 1 nM 3'-fluoresceinated RNA (heated to 99 C, slow cooled), 25 C. The conditions noted are these: protein: recombinant, chain copies: 2.

A further data set has as its target MRB1590 R199A-R200A (Trypanosoma brucei, UniProt UPI00067E648B 10-668, R199A;R200A). The data set is described as above. The conditions noted are these: protein: recombinant; chain copies: 2; label: 3' fluorescein.
For another data set, the target named is MRB1590 F95A (Trypanosoma brucei, UniProt UPI00067E648B 10-668, F95A). Described as above. The conditions noted are these: protein: recombinant; chain copies: 2; label: 3' fluorescein.
A further data set addresses MRB1590 Y637A (Trypanosoma brucei, UniProt UPI00067E648B 10-668, Y637A). Briefly: fluorescence polarization; ADP, Mg2+; little effect vs wt; FP: 20 mM Tris-HCl pH 7.5, 150 mM NaCl, 5% glycerol, 1 mM MgCl2, 2 mM ADP or AMP-PNP, 1 nM 3'-fluoresceinated RNA (heated to 99 C, slow cooled), 25 C. The conditions noted are these: protein: recombinant; chain copies: 2; label: 3' fluorescein.

Data set [2] has as its target T1, MRB1590(10-668). Briefly: fluorescence polarization; ADP, Mg2+; 1 RNA : 2 subunits; FP: 20 mM Tris-HCl pH 7.5, 150 mM NaCl, 5% glycerol, 1 mM MgCl2, 2 mM ADP or AMP-PNP, 1 nM 3'-fluoresceinated RNA (heated to 99 C, slow cooled), 25 C. The settings on record: protein: recombinant; chain copies: 2; label: 3' fluorescein.
A further data set concerns the target MRB1590 R191A (Trypanosoma brucei, UniProt UPI00067E648B 10-668, R191A). Description: fluorescence polarization; ADP, Mg2+; small effect vs wt; FP: 20 mM Tris-HCl pH 7.5, 150 mM NaCl, 5% glycerol, 1 mM MgCl2, 2 mM ADP or AMP-PNP, 1 nM 3'-fluoresceinated RNA (heated to 99 C, slow cooled), 25 C. The conditions noted are these: protein: recombinant; chain copies: 2; label: 3' fluorescein.

Data set [3] has as its target T1, MRB1590(10-668). Briefly: fluorescence polarization; AMP-PNP (table header says ATP), Mg2+; FP: 20 mM Tris-HCl pH 7.5, 150 mM NaCl, 5% glycerol, 1 mM MgCl2, 2 mM ADP or AMP-PNP, 1 nM 3'-fluoresceinated RNA (heated to 99 C, slow cooled), 25 C. The conditions noted are these: protein: recombinant; chain copies: 2; label: 3' fluorescein.

Consider GAUUUUUUGAGUGGGACUGGAGAGAAAGAGCCGUUCGAGC (ssRNA) [RSP12 #2], for which the equilibrium dissociation constant (Kd) in the data set with MRB1590(10-668) [1] (label: 3' fluorescein) was determined as 27 ± 2.8 nM.

AGGCGGGCGGGCGACGGCGGU (ssRNA) [GC-rich sequence RNA (A6 pause site, 21 mer)]: the binding signal with MRB1590 R199A-R200A is 590 fold reduction vs wt; in the data set with MRB1590 F95A, 10 fold reduction vs wt. Further, the binding result with MRB1590 Y637A and with MRB1590 R191A was “binds” in each case. Also, the Kd with MRB1590(10-668) [2] came to 2.2 ± 0.2 nM.

B1: dsGC-rich RNA (dsRNA)
RNA 1: AGGCGGGCGGGCGACGGCGGU
RNA 2: ACCGCCGUCGCCCGCCCGCCU
On to B1, for which, in the data set with MRB1590(10-668) [1], the Kd was determined as 50 ± 15 nM.

GAGAAGGCGAGGGCGACGGGCAAAAGAUUUU (ssRNA) [NAD7 #2]: the Kd with MRB1590(10-668) [1] (label: 3' fluorescein) was found to be 7.8 ± 0.5 nM.

For UUUUUUUUUUUUUUU (ssRNA) [U15 RNA], the Kd with MRB1590(10-668) [1] (label: 3' fluorescein) stood at 182 ± 30 nM.

Regarding ACCGCCGUCGCCCGCCCGCCU (ssRNA) [Complement of GC-rich RNA], the Kd amounted to 377 ± 69 nM with MRB1590(10-668) [3] and 395 ± 95 nM with MRB1590(10-668) [1] (label: 3' fluorescein).

Regarding CUAAUACACUUUUGAUAACAAACUAAAGUAAAAAGGCGAG (ssRNA) [RSP12 #1], the Kd with MRB1590(10-668) [1] (label: 3' fluorescein) stood at 63 ± 2.5 nM.

As for ACAAUAUCAAGUUUAGGUAUAAAGUAGA (ssRNA) [COX II #1], the dissociation constant Kd in the data set with MRB1590(10-668) [1] (label: 3' fluorescein) is 44 ± 2 nM.

Take AGAGGCGGGCGGGCGACGGCGGU (structured_RNA) [GC-rich hairpin RNA]: in the data set with MRB1590(10-668) [1] (label: 3' fluorescein, hairpin), the binding result is recorded as “no binding”.

For the molecule UGAUACAAAAAAACAUGACUACAUGAUAAGUA (ssRNA) [NAD7 #1], in the data set with MRB1590(10-668) [1] (label: 3' fluorescein), the equilibrium dissociation constant (Kd) came out at 50 ± 4 nM.

Turning to GAACCUGGUAGGUGUAAUGAAAUAAUUUUGU (ssRNA) [COX II #2], in the data set with MRB1590(10-668) [1] (label: 3' fluorescein), the Kd is 43 ± 1.6 nM.

For the molecule AAAAAAAAAAAAAAA (ssRNA) [A15 RNA], in the data set with MRB1590(10-668) [1] (label: 3' fluorescein), the equilibrium dissociation constant (Kd) was 437 ± 80 nM.
